# Test results taken from the supplement of paper PMC9112550, “Optimization of the antimicrobial peptide Bac7 by deep mutational scanning” (BMC Biology, 2022).
# Tested on: Escherichia coli TOP10
# Experiment: shrunken log2 fold change of peptide-encoding DNA abundance (4.5 h post-induction vs induction); higher = less antimicrobial activity (less host growth inhibition)
# Settings: time post-induction: 4.5 h; library: site-saturation at positions 5, 18, 19, 20
# 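Further: peptides expressed intracellularly from a pBAD plasmid library in pooled LB shake-flask culture, induced with 0.3% L-arabinose, DNA abundance read by NGS, three biological replicates, DESeq2 with apeglm shrinkage.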
row,Sequence,shrunken log2 fold change
1,RRIRDRPPRLPRPRPRPEIKPRP,1.54
2,RRIRQRPPRLPRPRPRPLGYPRP,-0.0704
3,RRIRFRPPRLPRPRPRPHKLPRP,-0.377
4,RRIRSRPPRLPRPRPRPQEKPRP,-0.393
5,RRIRERPPRLPRPRPRPLWAPRP,0.274
6,RRIRKRPPRLPRPRPRPHDIPRP,0.168
7,RRIRKRPPRLPRPRPRPKMFPRP,-0.146
8,RRIRWRPPRLPRPRPRPAFYPRP,0.371
9,RRIRDRPPRLPRPRPRPDPPPRP,0.627
10,RRIRHRPPRLPRPRPRPYFYPRP,-0.881
11,RRIRKRPPRLPRPRPRPSWMPRP,0.93
12,RRIRFRPPRLPRPRPRPDEGPRP,0.101
13,RRIRLRPPRLPRPRPRPTDFPRP,-0.0399
14,RRIRQRPPRLPRPRPRPNCYPRP,-0.284
15,RRIRDRPPRLPRPRPRPKMHPRP,0.159
16,RRIRPRPPRLPRPRPRPYQGPRP,-0.0345
17,RRIRDRPPRLPRPRPRPFIPPRP,-0.334
18,RRIRKRPPRLPRPRPRPHRNPRP,-0.167
19,RRIRSRPPRLPRPRPRPSFLPRP,0.182
20,RRIRQRPPRLPRPRPRPYGEPRP,-0.0137
21,RRIRWRPPRLPRPRPRPGYGPRP,-0.0305
22,RRIRPRPPRLPRPRPRPWRYPRP,-0.0238
23,RRIRHRPPRLPRPRPRPFWNPRP,0.034
24,RRIRYRPPRLPRPRPRPCHRPRP,-0.169
25,RRIRYRPPRLPRPRPRPGRGPRP,0.254

row,Sequence,shrunken log2 fold change
1,RRIRTRPPRLPRPRPRPLRKPRP,0.258
2,RRIRPRPPRLPRPRPRPFRRPRP,0.0448
3,RRIRMRPPRLPRPRPRPREIPRP,1.35
4,RRIRPRPPRLPRPRPRPGHEPRP,-0.202
5,RRIRNRPPRLPRPRPRPLIHPRP,-0.714
6,RRIRDRPPRLPRPRPRPNAYPRP,-0.043
7,RRIRNRPPRLPRPRPRPLTYPRP,-0.979
8,RRIRCRPPRLPRPRPRPQQYPRP,-0.709
9,RRIRERPPRLPRPRPRPGFHPRP,-0.277
10,RRIRDRPPRLPRPRPRPWICPRP,-0.298
11,RRIRNRPPRLPRPRPRPSAEPRP,0.113
12,RRIRDRPPRLPRPRPRPPEGPRP,0.76
13,RRIRMRPPRLPRPRPRPFNSPRP,-0.326
14,RRIRRRPPRLPRPRPRPAFTPRP,0.118
15,RRIRGRPPRLPRPRPRPSCFPRP,0.504
16,RRIRKRPPRLPRPRPRPTMCPRP,0.00679
17,RRIRIRPPRLPRPRPRPFHEPRP,-0.0627
18,RRIRHRPPRLPRPRPRPNKFPRP,-0.284
19,RRIRFRPPRLPRPRPRPHTEPRP,-0.731
20,RRIRLRPPRLPRPRPRPNKAPRP,-0.0163
21,RRIRIRPPRLPRPRPRPRDRPRP,-0.0241
22,RRIRFRPPRLPRPRPRPSMMPRP,-0.941
23,RRIRKRPPRLPRPRPRPDYYPRP,0.0521
24,RRIRPRPPRLPRPRPRPPFEPRP,0.596
25,RRIRDRPPRLPRPRPRPLQFPRP,0.0246

row,Sequence,shrunken log2 fold change
1,RRIRLRPPRLPRPRPRPWNVPRP,-0.0513
2,RRIRCRPPRLPRPRPRPMRPPRP,0.214
3,RRIRSRPPRLPRPRPRPSVCPRP,0.0526
4,RRIRNRPPRLPRPRPRPVMYPRP,-0.128
5,RRIRTRPPRLPRPRPRPARYPRP,0.189
6,RRIRKRPPRLPRPRPRPSNYPRP,-0.312
7,RRIRIRPPRLPRPRPRPLHQPRP,-0.121
8,RRIRNRPPRLPRPRPRPLLSPRP,0.1
9,RRIRSRPPRLPRPRPRPTHWPRP,0.451
10,RRIRRRPPRLPRPRPRPMQWPRP,0.103
11,RRIRVRPPRLPRPRPRPCSMPRP,-0.177
12,RRIRSRPPRLPRPRPRPYVIPRP,-0.292
13,RRIRLRPPRLPRPRPRPPGCPRP,0.558
14,RRIRERPPRLPRPRPRPSTIPRP,-0.551
15,RRIRFRPPRLPRPRPRPIPLPRP,-0.483
16,RRIRMRPPRLPRPRPRPMDAPRP,0.781
17,RRIRPRPPRLPRPRPRPGKEPRP,0.0995
18,RRIRNRPPRLPRPRPRPGSDPRP,-0.0348
19,RRIRRRPPRLPRPRPRPSSRPRP,-0.00108
20,RRIRERPPRLPRPRPRPIFYPRP,-0.385
21,RRIRKRPPRLPRPRPRPDCQPRP,0.00443
22,RRIRTRPPRLPRPRPRPAGDPRP,0.258
23,RRIRPRPPRLPRPRPRPCEIPRP,0.0471
24,RRIRHRPPRLPRPRPRPKYTPRP,0.973
25,RRIRNRPPRLPRPRPRPKWLPRP,-0.00522

row,Sequence,shrunken log2 fold change
1,RRIRKRPPRLPRPRPRPGQRPRP,0.328
2,RRIRWRPPRLPRPRPRPTVFPRP,0.255
3,RRIRPRPPRLPRPRPRPDCIPRP,-0.391
4,RRIRCRPPRLPRPRPRPKFLPRP,-0.258
5,RRIRERPPRLPRPRPRPVVGPRP,-0.106
6,RRIRDRPPRLPRPRPRPQFPPRP,0.0234
7,RRIRSRPPRLPRPRPRPHTRPRP,-0.453
8,RRIRTRPPRLPRPRPRPYFEPRP,-0.223
9,RRIRIRPPRLPRPRPRPFMVPRP,-0.975
10,RRIRCRPPRLPRPRPRPMNNPRP,-0.537
11,RRIRARPPRLPRPRPRPYMDPRP,-0.0602
12,RRIRARPPRLPRPRPRPVCWPRP,0.894
13,RRIRSRPPRLPRPRPRPTPTPRP,0.676
14,RRIRHRPPRLPRPRPRPAQKPRP,-0.0418
15,RRIRYRPPRLPRPRPRPMFRPRP,-0.296
16,RRIRHRPPRLPRPRPRPQDMPRP,-0.129
17,RRIRTRPPRLPRPRPRPFCKPRP,-0.132
18,RRIRTRPPRLPRPRPRPQNWPRP,-0.265
19,RRIRMRPPRLPRPRPRPMQKPRP,0.0563
20,RRIRTRPPRLPRPRPRPATGPRP,-0.123
21,RRIRARPPRLPRPRPRPAPTPRP,0.838
22,RRIRHRPPRLPRPRPRPARYPRP,0.0518
23,RRIRYRPPRLPRPRPRPPNNPRP,-0.708
24,RRIRPRPPRLPRPRPRPMAMPRP,-0.146
25,RRIRMRPPRLPRPRPRPQAGPRP,0.214

row,Sequence,shrunken log2 fold change
1,RRIRARPPRLPRPRPRPGTCPRP,0.153
2,RRIRTRPPRLPRPRPRPLHRPRP,-0.287
3,RRIRSRPPRLPRPRPRPVNNPRP,-0.363
4,RRIRCRPPRLPRPRPRPACYPRP,0.0371
5,RRIRMRPPRLPRPRPRPVNGPRP,-0.0577
6,RRIRSRPPRLPRPRPRPSKVPRP,-0.575
7,RRIRYRPPRLPRPRPRPAIFPRP,-0.0382
8,RRIRLRPPRLPRPRPRPEAKPRP,0.0204
9,RRIRARPPRLPRPRPRPDNKPRP,-0.24
10,RRIRFRPPRLPRPRPRPWDEPRP,-0.264
11,RRIRGRPPRLPRPRPRPITPPRP,-0.0185
12,RRIRIRPPRLPRPRPRPLGLPRP,-0.177
13,RRIRKRPPRLPRPRPRPIDEPRP,-0.148
14,RRIRVRPPRLPRPRPRPYPKPRP,-0.858
15,RRIRMRPPRLPRPRPRPRAEPRP,1.73
16,RRIRWRPPRLPRPRPRPYAVPRP,0.0097
17,RRIRYRPPRLPRPRPRPMFLPRP,-0.377
18,RRIRMRPPRLPRPRPRPCASPRP,0.0954
19,RRIRDRPPRLPRPRPRPHDIPRP,0.0555
20,RRIRGRPPRLPRPRPRPQCYPRP,-0.0337
21,RRIRMRPPRLPRPRPRPRPQPRP,1.13
22,RRIRDRPPRLPRPRPRPMMIPRP,0.0818
23,RRIRYRPPRLPRPRPRPPVTPRP,-0.0969
24,RRIRVRPPRLPRPRPRPQHSPRP,-0.245
25,RRIRRRPPRLPRPRPRPIVDPRP,0.841

row,Sequence,shrunken log2 fold change
1,RRIRERPPRLPRPRPRPDKDPRP,-0.433
2,RRIRFRPPRLPRPRPRPDVLPRP,-0.0865
3,RRIRSRPPRLPRPRPRPLEHPRP,0.0173
4,RRIRNRPPRLPRPRPRPDGAPRP,0.0931
5,RRIRIRPPRLPRPRPRPLMLPRP,-0.704
6,RRIRLRPPRLPRPRPRPAHLPRP,0.343
7,RRIRQRPPRLPRPRPRPCLLPRP,-2.33
8,RRIRFRPPRLPRPRPRPYFWPRP,-0.241
9,RRIRFRPPRLPRPRPRPTWDPRP,0.0928
10,RRIRARPPRLPRPRPRPLCAPRP,0.704
11,RRIRMRPPRLPRPRPRPAKPPRP,0.453
12,RRIRMRPPRLPRPRPRPPSQPRP,1.18
13,RRIRGRPPRLPRPRPRPLHTPRP,0.851
14,RRIRVRPPRLPRPRPRPRMKPRP,-0.167
15,RRIRYRPPRLPRPRPRPLWIPRP,-0.103
16,RRIRLRPPRLPRPRPRPIMHPRP,0.0628
17,RRIRTRPPRLPRPRPRPDYRPRP,0.0112
18,RRIRLRPPRLPRPRPRPSSKPRP,-0.524
19,RRIRWRPPRLPRPRPRPHLSPRP,-0.154
20,RRIRTRPPRLPRPRPRPINVPRP,-0.509
21,RRIRKRPPRLPRPRPRPDLFPRP,0.529
22,RRIRVRPPRLPRPRPRPTWIPRP,0.216
23,RRIRRRPPRLPRPRPRPSAVPRP,0.368
24,RRIRKRPPRLPRPRPRPAVWPRP,0.563
25,RRIRIRPPRLPRPRPRPYVAPRP,-0.674
